Data reported in US20260184748A1 (University of Pennsylvania, published 2026).
Where no end group is shown, it is not given here. [ ]: non-standard residue; d: D form.

Tests used:
Assay in all cases: cell-based or functional assay
[1] = target: T1, FPRL1 (UniProt P25090 1-351)
T1 sequence (looked up): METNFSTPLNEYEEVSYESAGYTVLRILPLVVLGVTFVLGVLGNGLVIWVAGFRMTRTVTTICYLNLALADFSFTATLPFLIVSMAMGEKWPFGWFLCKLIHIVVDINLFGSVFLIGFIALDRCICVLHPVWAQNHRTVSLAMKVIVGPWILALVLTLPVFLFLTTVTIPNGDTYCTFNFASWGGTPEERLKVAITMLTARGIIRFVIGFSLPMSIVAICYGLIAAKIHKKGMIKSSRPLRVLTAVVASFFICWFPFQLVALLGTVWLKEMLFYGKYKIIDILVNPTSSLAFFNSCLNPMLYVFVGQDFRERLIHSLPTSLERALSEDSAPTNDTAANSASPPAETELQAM

[2] = target: T2, FPR1 (UniProt P21462 1-350)
T2 sequence (looked up): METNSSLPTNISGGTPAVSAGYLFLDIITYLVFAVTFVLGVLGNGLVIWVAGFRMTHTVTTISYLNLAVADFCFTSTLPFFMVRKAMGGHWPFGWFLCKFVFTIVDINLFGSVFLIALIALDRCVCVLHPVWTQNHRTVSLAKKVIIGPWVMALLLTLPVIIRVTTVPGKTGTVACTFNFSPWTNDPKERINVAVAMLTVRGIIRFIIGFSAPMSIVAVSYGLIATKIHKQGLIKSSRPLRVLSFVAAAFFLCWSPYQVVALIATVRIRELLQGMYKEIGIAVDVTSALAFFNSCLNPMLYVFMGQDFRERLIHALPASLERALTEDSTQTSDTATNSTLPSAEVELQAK

[3] = target: F2RL1 (UniProt P55085 26-397, limits assumed)

| Binder | EC80, arrestin, agonist mode [1] [nM] | EC80, arrestin, agonist mode [2] [nM] | EC50 (RC50), arrestin, agonist mode [3] [nM] | EC80, arrestin, agonist mode [3] [nM] |
| --- | --- | --- | --- | --- |
| WKYMV[dM]-NH2 [WKYMVm-NH2] | 11.8 | 25.2 | – | – |
| SLIGRL-NH2 [SLIGRL-NH2] | – | – | 552 | 2130 |
